Test results as given in paper PMC6193965.

Target: T1, mouse MILL2 extracellular domain (heavy chain) (mouse)
T1 sequence (Q8HWE5 whole entry, looked up): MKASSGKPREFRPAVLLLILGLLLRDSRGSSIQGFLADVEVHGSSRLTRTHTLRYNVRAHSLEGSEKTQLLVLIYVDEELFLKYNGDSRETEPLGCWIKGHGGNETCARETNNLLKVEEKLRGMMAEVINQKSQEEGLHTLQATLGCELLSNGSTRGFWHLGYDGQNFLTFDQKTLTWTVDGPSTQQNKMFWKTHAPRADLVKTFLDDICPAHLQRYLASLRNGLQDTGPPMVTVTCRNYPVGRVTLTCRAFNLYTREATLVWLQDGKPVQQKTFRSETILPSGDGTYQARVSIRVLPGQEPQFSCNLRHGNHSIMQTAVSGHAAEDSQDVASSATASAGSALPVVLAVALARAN
Test: SEC; MILL2 refolded by rapid dilution with 10 μM refolded β2m; complex purified on Superdex 75 and then by cation exchange (RESOURCE S); stoichiometry of the purified complex (Supplementary Fig. 1c)

stoichiometry N: 1
Substance: mouse β2-microglobulin (from UniProt P01887 21-119) (natural protein)
